Source: patent publication US5635601, “Beta-8 integrin subunit antibodies” (Genentech, Inc., dated 1997)

Legend:
alpha-3 integrin subunit = target: T1, alpha-3 integrin subunit (human, UniProt P26006); test: co-immunoprecipitation from surface-labelled beta-8-transfected 293 cells with monoclonal antibody P1B5
T1 sequence 1: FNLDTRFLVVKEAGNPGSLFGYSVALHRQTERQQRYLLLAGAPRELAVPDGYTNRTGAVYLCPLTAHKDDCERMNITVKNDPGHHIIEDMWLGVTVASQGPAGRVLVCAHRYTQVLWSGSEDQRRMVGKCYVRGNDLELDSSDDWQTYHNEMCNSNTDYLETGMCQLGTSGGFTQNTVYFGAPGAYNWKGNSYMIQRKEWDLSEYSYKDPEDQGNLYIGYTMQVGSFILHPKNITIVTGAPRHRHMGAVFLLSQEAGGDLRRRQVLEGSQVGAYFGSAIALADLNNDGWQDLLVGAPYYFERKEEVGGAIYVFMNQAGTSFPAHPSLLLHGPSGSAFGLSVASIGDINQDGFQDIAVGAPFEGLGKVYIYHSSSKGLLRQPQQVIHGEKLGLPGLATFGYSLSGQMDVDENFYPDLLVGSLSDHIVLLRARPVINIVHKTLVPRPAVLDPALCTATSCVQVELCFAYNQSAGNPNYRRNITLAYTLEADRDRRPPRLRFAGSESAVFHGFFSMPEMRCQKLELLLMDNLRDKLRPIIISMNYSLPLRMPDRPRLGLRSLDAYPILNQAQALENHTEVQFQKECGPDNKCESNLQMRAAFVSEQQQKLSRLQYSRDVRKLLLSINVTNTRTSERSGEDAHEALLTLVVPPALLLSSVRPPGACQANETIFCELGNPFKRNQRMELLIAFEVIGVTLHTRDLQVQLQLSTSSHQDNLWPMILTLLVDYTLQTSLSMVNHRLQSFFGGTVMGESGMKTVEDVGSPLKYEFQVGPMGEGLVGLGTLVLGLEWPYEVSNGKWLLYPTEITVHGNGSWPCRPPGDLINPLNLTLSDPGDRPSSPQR
T1 sequence 2: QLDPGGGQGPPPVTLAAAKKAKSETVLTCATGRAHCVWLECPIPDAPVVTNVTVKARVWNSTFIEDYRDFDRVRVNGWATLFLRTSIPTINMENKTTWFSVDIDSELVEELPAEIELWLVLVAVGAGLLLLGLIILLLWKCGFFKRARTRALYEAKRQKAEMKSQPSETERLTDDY
Procedure: (§1) For the immunoprecipitation, four hundred microliters of the labelled cell extract was incubated with 1/100 volume of antibody (ascites, culture supernatant or antiserum) at 4° C. overnight, and immunoprecipitations were carried out using Protein G Sepharose™ 4FF (Pharmacia) after first preclearing with SEPHAROSE™ CL-4B (Pharmacia). Protein G SEPHAROSE™ beads were washed three times with 0.05% Tween 20, 20mM Tris pH 8, 120 mM NaCl, 2 mM CaCl_2. Proteins precipitated from the labelled cell extracts were solubilized by heating in sample buffer and analyzed by separation on a 7.5% SDS-polyacrylamide gel followed by autoradiography.
(§2) These cells endogenously express various alpha integrin subunits, including alpha-v. The beta-8 integrin transfected cell proteins were prepared for immunoprecipitation as described in Example 4.
(§3) Monoclonal antibodies against several different alpha integrin subunits were used in the immunoprecipitations in order to identify with which alpha subunit the beta-8 integrin formed a complex. […]

alpha-1 integrin subunit = alpha-1 integrin subunit (human, UniProt P56199); test: co-immunoprecipitation from surface-labelled beta-8-transfected 293 cells with monoclonal antibody TS2/7
Procedure: as §1, §2, §3

alpha-5 integrin subunit = alpha-5 integrin subunit (human, UniProt P08648); test: co-immunoprecipitation from surface-labelled beta-8-transfected 293 cells with monoclonal antibody P1D6
Procedure: as §1, §2, §3

alpha-2 integrin subunit = alpha-2 integrin subunit (human, UniProt P17301); test: co-immunoprecipitation from surface-labelled beta-8-transfected 293 cells with monoclonal antibody P1H5
Procedure: as §1, §2, §3

alpha-6 integrin subunit = target: T2, alpha-6 integrin subunit (human, UniProt P23229); test: co-immunoprecipitation from surface-labelled beta-8-transfected 293 cells with monoclonal antibody GoH3
T2 sequence 1: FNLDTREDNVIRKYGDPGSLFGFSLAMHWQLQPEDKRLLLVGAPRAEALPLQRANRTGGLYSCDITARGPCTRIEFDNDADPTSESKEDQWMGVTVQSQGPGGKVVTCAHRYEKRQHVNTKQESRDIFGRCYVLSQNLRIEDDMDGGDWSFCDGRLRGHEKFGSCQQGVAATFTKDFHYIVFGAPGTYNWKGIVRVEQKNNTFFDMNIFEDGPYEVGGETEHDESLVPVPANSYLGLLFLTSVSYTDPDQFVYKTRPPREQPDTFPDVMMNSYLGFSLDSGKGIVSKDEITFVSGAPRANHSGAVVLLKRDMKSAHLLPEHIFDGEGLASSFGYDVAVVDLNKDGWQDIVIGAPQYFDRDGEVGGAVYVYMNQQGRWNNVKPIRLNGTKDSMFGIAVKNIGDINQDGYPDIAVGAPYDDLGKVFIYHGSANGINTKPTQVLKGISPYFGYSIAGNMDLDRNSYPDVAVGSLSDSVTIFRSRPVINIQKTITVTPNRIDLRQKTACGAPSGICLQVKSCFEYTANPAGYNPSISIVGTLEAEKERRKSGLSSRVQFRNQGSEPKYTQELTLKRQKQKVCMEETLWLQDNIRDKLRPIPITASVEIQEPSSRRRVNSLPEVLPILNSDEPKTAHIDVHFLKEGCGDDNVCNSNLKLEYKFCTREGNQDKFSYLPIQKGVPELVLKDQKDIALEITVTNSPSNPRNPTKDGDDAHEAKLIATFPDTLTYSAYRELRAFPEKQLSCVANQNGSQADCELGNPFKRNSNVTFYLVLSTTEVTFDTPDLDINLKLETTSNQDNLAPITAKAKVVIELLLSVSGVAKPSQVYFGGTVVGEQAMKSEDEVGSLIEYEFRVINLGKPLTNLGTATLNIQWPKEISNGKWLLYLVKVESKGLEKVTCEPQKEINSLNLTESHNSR
T2 sequence 2: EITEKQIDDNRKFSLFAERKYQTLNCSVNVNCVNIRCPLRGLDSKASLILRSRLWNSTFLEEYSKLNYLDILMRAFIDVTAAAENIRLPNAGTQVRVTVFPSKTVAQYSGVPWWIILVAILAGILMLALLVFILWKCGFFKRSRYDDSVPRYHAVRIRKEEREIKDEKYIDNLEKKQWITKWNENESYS
Procedure: as §1, §2, §3

binding result (alpha-3 integrin subunit): no binding | binding result (alpha-1 integrin subunit): no binding | binding result (alpha-5 integrin subunit): no binding | binding result (alpha-2 integrin subunit): no binding | binding result (alpha-6 integrin subunit): no binding
B1: human beta-8 integrin subunit (receptor)
chain: EDNRCASSNAASCARCLALGPECGWCVQEDFISGGSRSERCDIVSNLISKGCSVDSIEYPSVHVIIPTENEINTQVTPGEVSIQLRPGAEANFMLKVHPLKKYPVDLYYLVDVSASMHNNIEKLNSVGNDLSRKMAFFSRDFRLGFGSYVDKTVSPYISIHPERIHNQCSDYNLDCMPPHGYIHVLSLTENITEFEKAVHRQKISGNIDTPEGGFDAMLQAAVCESHIGWRKEAKRLLLVMTDQTSHLALDSKLAGIVVPNDGNCHLKNNVYVKSTTMEHPSLGQLSEKLIDNNINVIFAVQGKQFHWYKDLLPLLPGTIAGEIESKAANLNNLVVEAYQKLISEVKVQVENQVQGIYFNITAICPDGSRKPGMEGCRNVTSNDEVLFNVTVTMKKCDVTGGKNYAIIKPIGFNETAKIHIHRNCSCQCEDNRGPKGKCVDETFLDSKCFQCDENKCHFDEDQFSSESCKSHKDQPVCSGRGVCVCGKCSCHKIKLGKVYGKYCEKDDFSCPYHHGNLCAGHGECEAGRCQCFSGWEGDRCQCPSAAAQHCVNSKGQVCSGRGTCVCGRCECTDPRSIGRFCEHCPTCYTACKENWNCMQCLHPHNLSQAILDQCKTSCALMEQQHYVDQTSECFSSPSYLRIFFIIFIVTFLIGLLKVLIIRQVILQWNSNKIKSSSDYRVSASKKDKLILQSVCTRAVTYRREKPEEIKMDISKLNAHETFRCNF
modifications: surface labelled with 125I (lactoperoxidase)
